Reference: paper PMC12326332, “Tuning ubiquitin transfer by RING E3 ubiquitin ligases through the linchpin residue” (Life Science Alliance, 2025)

Target: T1, mature human SMAC^56-C (human, UniProt Q9NR28 56-239)
T1 construct: SMAC (DIABLO), mature form starting from Ala56 to the C terminus; expressed as a SUMO fusion in pRSF-DUET1 so that the N terminus starts from Ala56; also called SMAC^56-C,Strep-II; mature SMAC; source: E. coli BL21 (DE3) Rosetta 2 pLysS, purified (His-TRAP, Superdex 75); not shown: SUMO, N-terminal, cleaved
T1 sequence (looked up): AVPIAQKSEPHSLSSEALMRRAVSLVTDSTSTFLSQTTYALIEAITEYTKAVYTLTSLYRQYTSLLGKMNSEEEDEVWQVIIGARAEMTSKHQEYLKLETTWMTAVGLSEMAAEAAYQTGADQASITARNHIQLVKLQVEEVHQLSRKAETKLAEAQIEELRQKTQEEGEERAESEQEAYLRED
Assay: SEC; gel filtration elution profiles of XIAP-RNF38^WT, SMAC^56-C and the E3/SMAC mixture
Details: both partners purified

B1: XIAP^145-430-RNF38^389-C (other, UniProt P98170 145-430, looked up)
chain: QVVDISDTIYPRNPAMYSEEARLKSFQNWPDYAHLTPRELASAGLYYTGIGDQVQCFCCGGKLKNWEPCDRAWSEHRRHFPNCFFVLGRNLNIRSESDAVSSDRNFPNSTNLPRNPSMADYEARIFTFGTWIYSVNKEQLARAGFYALGEGDKVKCFHCGGGLTDWKPSEDPWEQHAKWYPGCKYLLEQKGQEYINNIHLTHSLEECLVRTTEKTPSLTRRIDDTIFQNPMVQEAIRMGFSFKDIKKIMEEKIQISGSNYKSLEVLVADLVNAQKDSMQDESSQTSTKADIEQLPSYRFNPNNHQSEQTLCVVCMCDFESRQLLRVLPCNHEFHAKCVDKWLKANRTCPICRADASEVHRDSE
notes: XIAP (BIRC4) residues 145-430 with the substrate-recruiting BIR2 and BIR3 domains; RNF38 RING domain, residue 389 to the C terminus; no linker between the two parts is told; also called XIAP-RNF38; XIAP-RNF38^WT; source: E. coli BL21 (DE3) Rosetta 2 pLysS, purified
  binding result: binds
